{"source": "paper doi:10.1101/2023.01.16.524289", "about": "“HuR modulation with tanshinone mimics impairs LPS response in murine macrophages”", "target": "rM1M2 HuR (RRM1-RRM2) (UniProt Q15717 18-186)", "sequence (Q15717 18-186)": "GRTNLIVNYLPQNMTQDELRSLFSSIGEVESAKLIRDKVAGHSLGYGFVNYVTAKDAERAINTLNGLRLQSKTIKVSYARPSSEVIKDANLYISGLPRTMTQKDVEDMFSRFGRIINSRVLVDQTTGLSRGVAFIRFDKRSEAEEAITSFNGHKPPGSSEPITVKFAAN", "experiment": "HTRF; 20 nM protein, 50 nM probe; TM7nox inhibits with IC50 0.7956 uM (small-molecule IC50, not an affinity); REMSA: 30 min incubation, 4% native gel, buffer not given; HTRF: Cisbio protocol; pull-down: lysis in PEB (20 mM Tris-HCl pH 7.5, 100 mM KCl, 5 mM MgCl2, 0.5% NP-40), binding in TENT (20 mM Tris-HCl pH 8.0, 2 mM EDTA, 500 mM NaCl, 1% Triton X-100), 4 C", "conditions": "protein: recombinant; tags: His-tag; label: 5'-biotin; single strand", "data": [{"binder": "AUUAUUUAUUAUUUAUUUAUUAUUUA (ssRNA)", "note": "[Bi-TNF ARE probe (26 nt)]", "values": [{"measurement": "binding result", "result": "binds"}]}]}
